Experimental findings from US20090304686A1, “INTERFERING IN ACTIVATION OF AN IMMUNE CELL BY INFLUENCING INTERACTION OF LAIR AND COLLAGEN” (UNIVERSOTAIR MEDISCH CENTRUM UTRECHT, priority 2006, published 2009) are described below.

By Kd is commonly meant the free concentration of one partner at which half of the binding sites on the other are occupied at equilibrium, for simple one-to-one binding. High values mean weaker binding, low ones tighter binding. Broadly, the koff is a measure of how fast the partners let go of each other. A high value points to fast dissociation.

Assay [1] has as its target collagen I (purified, Sigma; acid-soluble human collagen type I in BIAcore) (human) (UniProt P02452).
For assay [2], the target named is collagen III (purified, Sigma; acid-soluble human collagen type III in BIAcore) (human) (UniProt P02461).
The target of assay [3] is collagen I (purified, Sigma; acid-soluble human collagen type I in BIAcore) (human) (UniProt P02452). Briefly: BIAcore, equilibrium binding to immobilized human collagen I.
Assay [4] concerns the target collagen III (purified, Sigma; acid-soluble human collagen type III in BIAcore) (human) (UniProt P02461). Briefly: BIAcore, equilibrium binding to immobilized human collagen III. On the technique in general: Surface plasmon resonance follows binding to a sensor surface in real time, without labels.
Assay [5] concerns the target collagen I (purified, Sigma; acid-soluble human collagen type I in BIAcore) (human) (UniProt P02452). The assay is described as follows: SPR (BIAcore), equilibrium binding to immobilised collagen I.
For assay [6], the target named is collagen III (purified, Sigma; acid-soluble human collagen type III in BIAcore) (human) (UniProt P02461). The assay is described as follows: SPR (BIAcore), equilibrium binding to immobilised collagen III.
Assay [7] addresses collagen I (purified, Sigma; acid-soluble human collagen type I in BIAcore) (human) (UniProt P02452). The assay is described as follows: SPR (BIAcore), biphasic dissociation from collagen I, component Koff1.
For assay [8] the target is unchanged. The assay is described as follows: SPR (BIAcore), biphasic dissociation from collagen I, component Koff2.
In assay [9] the target is collagen III (purified, Sigma; acid-soluble human collagen type III in BIAcore) (human) (UniProt P02461). The assay is described as follows: SPR (BIAcore), biphasic dissociation from collagen III, component Koff1.
The target is the same in assay [10]. The assay is described as follows: SPR (BIAcore), biphasic dissociation from collagen III, component Koff2.
Assay [11] deals with hLAIR-1-CD3ζ chimera on 2B4 NFAT-GFP reporter cells (human) (UniProt Q6GTX8).
Assay [12] shares this target. The source holds these as a separate data set.

Chain of collagen III (purified, Sigma; acid-soluble human collagen type III in BIAcore) (human) (P02461 154-1221): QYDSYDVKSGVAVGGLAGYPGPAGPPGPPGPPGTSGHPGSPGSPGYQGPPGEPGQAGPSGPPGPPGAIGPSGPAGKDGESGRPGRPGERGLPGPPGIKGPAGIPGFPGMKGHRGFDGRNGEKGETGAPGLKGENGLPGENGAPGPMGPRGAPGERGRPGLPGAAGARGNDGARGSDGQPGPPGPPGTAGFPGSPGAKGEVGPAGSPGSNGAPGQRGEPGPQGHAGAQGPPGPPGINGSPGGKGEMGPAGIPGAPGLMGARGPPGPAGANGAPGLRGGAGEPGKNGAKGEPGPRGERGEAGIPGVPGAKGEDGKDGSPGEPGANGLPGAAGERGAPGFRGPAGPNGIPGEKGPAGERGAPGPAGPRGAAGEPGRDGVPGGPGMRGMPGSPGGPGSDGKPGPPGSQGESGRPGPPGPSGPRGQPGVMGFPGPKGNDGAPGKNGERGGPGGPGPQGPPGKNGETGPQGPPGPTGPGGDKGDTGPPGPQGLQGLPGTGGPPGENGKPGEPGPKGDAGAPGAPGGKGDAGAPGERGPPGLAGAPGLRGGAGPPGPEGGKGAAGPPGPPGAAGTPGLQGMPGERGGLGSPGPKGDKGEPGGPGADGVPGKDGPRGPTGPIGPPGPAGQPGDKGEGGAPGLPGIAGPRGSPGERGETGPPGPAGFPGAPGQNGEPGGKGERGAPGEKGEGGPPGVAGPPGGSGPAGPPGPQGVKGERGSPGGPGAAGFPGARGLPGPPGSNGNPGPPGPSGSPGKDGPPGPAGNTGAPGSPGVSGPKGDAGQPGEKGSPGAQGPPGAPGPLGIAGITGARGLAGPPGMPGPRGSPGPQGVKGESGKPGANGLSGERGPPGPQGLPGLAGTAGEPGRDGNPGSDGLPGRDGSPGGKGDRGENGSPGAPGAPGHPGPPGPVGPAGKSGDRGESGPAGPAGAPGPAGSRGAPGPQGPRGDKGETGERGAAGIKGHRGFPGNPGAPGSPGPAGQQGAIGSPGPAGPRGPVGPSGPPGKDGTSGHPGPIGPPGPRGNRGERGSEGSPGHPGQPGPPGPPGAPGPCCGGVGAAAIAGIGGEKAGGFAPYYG
Chain of hLAIR-1-CD3ζ chimera on 2B4 NFAT-GFP reporter cells (human) (Q6GTX8 22-165, change not shown): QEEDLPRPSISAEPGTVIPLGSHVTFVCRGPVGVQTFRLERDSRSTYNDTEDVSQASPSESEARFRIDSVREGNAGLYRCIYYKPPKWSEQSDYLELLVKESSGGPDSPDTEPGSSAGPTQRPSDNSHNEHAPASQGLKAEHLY

The substance Control IgG (Fc fusion) displayed a percentage of GFP-positive hLAIR-1-CD3ζ reporter cells on Collagen I pre-incubated with Control IgG (55.0 without block) in assay [1] of 50.3%. This substance showed a percentage of GFP-positive hLAIR-1-CD3ζ reporter cells on Collagen III pre-incubated with Control IgG (45.3 without block) in [2] of 42.8%.

For the substance “LAIR-2-IgG (human LAIR-2 fused to the Fc region of human IgG1) (from UniProt Q6ISS4 22-152) (Fc fusion)”, the percentage of GFP-positive hLAIR-1-CD3ζ reporter cells on Collagen I pre-incubated with LAIR-2-IgG (55.0 without block) in [1] amounted to 0.5%. Besides, in [2], the percentage of GFP-positive hLAIR-1-CD3ζ reporter cells on Collagen III pre-incubated with LAIR-2-IgG (45.3 without block) turned out to be 8.4%. For the same substance, the Kd stood at 34.6 nM in [3] and 41.4 nM in [4]. For the same substance, the Bmax (mol/mol Col I) in assay [5] was found to be 10.4. In addition, the Bmax (mol/mol Col III) in assay [6] was determined as 10.7. The koff turned out to be 0.00083 s⁻¹ in [7], 0.0073 s⁻¹ in assay [8], 0.0005 s⁻¹ in assay [9] and 0.0046 s⁻¹ in [10].

Consider “collagen I (purified, Sigma; acid-soluble human collagen type I in BIAcore) (from UniProt P02452 162-1218; P08123 80-1119) (ligand)”, for which, in assay [11], the percentage of GFP-positive reporter cells on coated Col I (parental cells 0.3) was found to be 33.8%. Moreover, the percentage of GFP-positive reporter cells on Collagen I without block (parental cells 0.2) in [12] was found to be 55%.
